This note sets out measurements from US20240327516A1 (Zymeworks, published 2024).

The term EC50 denotes the concentration giving half of the maximal effect. A word on the EC50 (read off the curve): it is the concentration giving half of the maximal effect. Read a high EC50 (read off the curve) as weaker potency. The Kd is the equilibrium constant for the complex coming apart. A low value points to a tighter complex.

Assay [1] addresses T1, CD3 on CD3+ Jurkat cells and primary human T cells (human, UniProt P07766 23-207).
T1 construct: whole, on cells; also called native CD3; CD3ε
Nature of the assay: flow cytometry on primary human T cells, apparent affinity.

In assay [2] the target is MSLN (form in the assay not stated) (UniProt Q13421 296-580). The assay is described as follows: method and antigen form not stated in Table 12.
MSLN (form in the assay not stated), sequence (Q13421 other isoform, or with tags, fused parts or gaps limits assumed): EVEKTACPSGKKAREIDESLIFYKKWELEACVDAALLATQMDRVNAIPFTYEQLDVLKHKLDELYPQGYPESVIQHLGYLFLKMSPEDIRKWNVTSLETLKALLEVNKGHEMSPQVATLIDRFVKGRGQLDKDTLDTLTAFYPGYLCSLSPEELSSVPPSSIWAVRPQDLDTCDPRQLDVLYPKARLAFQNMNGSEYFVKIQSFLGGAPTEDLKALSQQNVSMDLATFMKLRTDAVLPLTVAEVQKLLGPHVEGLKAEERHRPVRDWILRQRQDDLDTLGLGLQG
Assay [3] addresses T1, CD3 on CD3+ Jurkat cells and primary …. The assay is described as follows: whole-cell ELISA on CD3+ Jurkat cells, apparent affinity; main value of the cell, outside the parentheses. (In general: An ELISA detects its analyte on a solid surface through an enzyme-linked reagent.)
Assay [4] addresses T2, mesothelin (MSLN) on MSLN-expressing tumor cells (human, UniProt Q13421 296-598). Nature of the assay: cell-based or functional assay.
Assay [5] concerns the target T2, mesothelin (MSLN) on MSLN-expressing ….
The target of assay [6] is T1, CD3 on CD3+ Jurkat cells and primary …. The assay is described as follows: whole-cell ELISA on CD3+ Jurkat cells, apparent affinity.
Assay [7] shares this target. Nature of the assay: whole-cell flow cytometry on primary human T cells, apparent affinity.
For assay [8] the target is unchanged. Nature of the assay: cell ELISA on whole CD3+ Jurkat cells (HRP anti-human IgG Fc, A 450nm).
Assay [9] has the same target. The assay is described as follows: flow cytometry on primary human CD4+ T cells (anti-IgG-Fc detection, geo MFI). A general note: Flow cytometry measures light scatter and fluorescence of single cells or particles in a stream.
Assay [10] addresses T2, mesothelin (MSLN) on MSLN-expressing …. The assay is described as follows: cell-based or functional assay. The source holds these as a separate data set.
The target is the same in assay [11]. Nature of the assay: flow cytometry on MSLN+ OVCAR-3 cells (Alexa Fluor 647 anti-IgG-Fc, MFI).
The target is the same in assay [12]. Nature of the assay: whole-cell flow cytometry on OVCAR-3 cells, apparent affinity.
Assay [13] shares this target. The source holds these as a separate data set.
Assay [14] has the same target. The source holds these as a separate data set.
The target of assay [15] is T1, CD3 on CD3+ Jurkat cells and primary …. The assay is described as follows: flow cytometry on primary human CD8+ T cells (anti-IgG-Fc detection, geo MFI).

Read-outs that look alike come from different tables or passages of the source.

T1 sequence (P07766 23-207): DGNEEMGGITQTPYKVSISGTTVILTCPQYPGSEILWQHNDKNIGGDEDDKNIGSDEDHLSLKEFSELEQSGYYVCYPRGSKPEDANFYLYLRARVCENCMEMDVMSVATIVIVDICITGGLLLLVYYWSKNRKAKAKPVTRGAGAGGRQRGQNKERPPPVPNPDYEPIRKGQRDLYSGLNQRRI
T2 sequence (Q13421 other isoform, or with tags, fused parts or gaps limits assumed): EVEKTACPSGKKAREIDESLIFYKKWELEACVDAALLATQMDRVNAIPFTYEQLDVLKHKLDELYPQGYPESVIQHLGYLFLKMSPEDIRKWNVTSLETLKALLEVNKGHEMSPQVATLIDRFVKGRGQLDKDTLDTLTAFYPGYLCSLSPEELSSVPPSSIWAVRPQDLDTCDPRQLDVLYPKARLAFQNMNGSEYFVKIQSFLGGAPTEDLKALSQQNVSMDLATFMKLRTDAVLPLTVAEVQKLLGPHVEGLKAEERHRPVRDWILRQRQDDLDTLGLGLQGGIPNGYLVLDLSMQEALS

B1: v29048, trivalent and bispecific antibody construct [MSLN (2 scFv) x CD3 (1 Fab)] (bispecific antibody, human IgG1, lambda, L234A L235A)
heavy 1: not shown
heavy 2: EVQLLESGGGLVQPGGSVRISCAASGYSFTGYTMNWVRQAPGKGLEWIGLITPYSGASSYADSFKGRATLSVDNSKNTAYMQLNSLRAEDTAVYYCARGGYDGRGFDYWGQGTLVTVSSGGGGSGGGGSGGGGSDIQLTQSPSSLSASVGDRVTMTCSASSSVSYMHWYQQKPGKAPKLWIYDTSKLASGVPSRFSGSGSGTDYTLTISSVQPEDFATYYCQQWSKHPLTFGQGTKVEIKAAEPKSSDKTHTCPPCPAPEAAGGPSVFLFPPKPKDTLMISRTPEVTCVVVSVSHEDPEVKFNWYVDGVEVHNAKTKPREEQYNSTYRVVSVLTVLHQDWLNGKEYKCKVSNKALPAPIEKTISKAKGQPREPQVYVLPPSRDELTKNQVSLLCLVKGFYPSDIAVEWESNGQPENNYLTWPPVLDSDGSFFLYSKLTVDKSRWQQGNVFSCSVMHEALHNHYTQKSLSLSPG
light: NFMLTQPHSVSESPGKTVTISCKRNTGNIGSNYVNWYQQHEGSSPTTIIYRNDKRPDGVSDRFSGSIDRSSKSASLTISNLKTEDEADYFCQSYSSGFIFGGGTKLTVLGQPKAAPSVTLFPPSSEELQANKATLVCLISDFYPGAVTVAWKADSSPVKAGVETTTPSKQSNNKYAASSYLSLTPEQWKSHRSYSCQVTHEGSTVEKTVAPTECS
As to B1, the EC50 came out at 183 nM in [1], 5.5 nM in assay [3] and 0.5 nM in assay [5]. In assay [2], the “Affinity to MSln” value is 9.8 nM. In assay [4], the “IC50 of T cell-dependent cytotoxicity on OVCAR-3 cells (pan T cells, E:T 5:1, 72 h)” value amounted to 0.0004 nM.

B2: v29045, trivalent and bispecific antibody construct [MSLN (2 scFv) x CD3 (1 Fab)] (bispecific antibody, human IgG1, lambda, L234A L235A)
heavy 1: not shown
heavy 2: QVQLVQSGAEVKKPGASVKISCKASGYSFTGYTMNWVRQAPGQGLEWIGLITPYSGASSYAQKFQGRATLTVDKSTSTAYMELSSLRSEDTAVYYCARGGYDGRGFDYWGQGTLVTVSSGGGGSGGGGSGGGGSEIVLTQSPATLSLSPGERVTMSCSASSSVSYMHWYQQKPGQAPRLWIYDTSKLASGVPARFSGSGSGTDYTLTISSVEPEDFAVYYCQQWSGYPLTFGQGTKVEIKAAEPKSSDKTHTCPPCPAPEAAGGPSVFLFPPKPKDTLMISRTPEVTCVVVSVSHEDPEVKFNWYVDGVEVHNAKTKPREEQYNSTYRVVSVLTVLHQDWLNGKEYKCKVSNKALPAPIEKTISKAKGQPREPQVYVLPPSRDELTKNQVSLLCLVKGFYPSDIAVEWESNGQPENNYLTWPPVLDSDGSFFLYSKLTVDKSRWQQGNVFSCSVMHEALHNHYTQKSLSLSPG
light: NFMLTQPHSVSESPGKTVTISCKRNTGNIGSNYVNWYQQHEGSSPTTIIYRNDKRPDGVSDRFSGSIDRSSKSASLTISNLKTEDEADYFCQSYSSGFIFGGGTKLTVLGQPKAAPSVTLFPPSSEELQANKATLVCLISDFYPGAVTVAWKADSSPVKAGVETTTPSKQSNNKYAASSYLSLTPEQWKSHRSYSCQVTHEGSTVEKTVAPTECS
Turning to B2, the EC50 came to 1.3 nM in assay [6] and 0.4 nM in [5]. Besides, the “Affinity to MSln” value in [2] is 62.6 nM. The “IC50 of T cell-dependent cytotoxicity on OVCAR-3 cells (pan T cells, E:T 5:1, 72 h)” value in [4] stood at 0.0272 nM.

B3: v31926, negative control antibody [Hemagglutinin (HA) (2 scFv) x CD3 (1 Fab)] (bispecific antibody)
heavy 1: not shown
heavy 2: QVQLVQSGAEVKKPGASVRVSCRASGYIFTESGITWVRQAPGQGLEWMGWISGYSGDTKYAQKLQGRVTMTKDTSTTTAYMELRSLRYDDTAVYYCARDVQYSGSYLGAYYFDYWSPGTLVTVSSGGGGSGGGGSGGGGSGGGQSVLTQPPSASGTPGQRVTISCSGSSSNIGTNYVYWYQQFPGTAPKLLIYRSYQRPSGVPDRFSGSKSGSSASLAISGLQSEDEADYYCATWDDSLDGWVFGGGTKLTVLAAEPKSSDKTHTCPPCPAPEAAGGPSVFLFPPKPKDTLMISRTPEVTCVVVSVSHEDPEVKFNWYVDGVEVHNAKTKPREEQYNSTYRVVSVLTVLHQDWLNGKEYKCKVSNKALPAPIEKTISKAKGQPREPQVYVLPPSRDELTKNQVSLLCLVKGFYPSDIAVEWESNGQPENNYLTWPPVLDSDGSFFLYSKLTVDKSRWQQGNVFSCSVMHEALHNHYTQKSLSLSPG
light: NFMLTQPHSVSESPGKTVTISCKRNTGNIGSNYVNWYQQHEGSSPTTIIYRNDKRPDGVSDRFSGSIDRSSKSASLTISNLKTEDEADYFCQSYSSGFIFGGGTKLTVLGQPKAAPSVTLFPPSSEELQANKATLVCLISDFYPGAVTVAWKADSSPVKAGVETTTPSKQSNNKYAASSYLSLTPEQWKSHRSYSCQVTHEGSTVEKTVAPTECS
Consider B3, for which the EC50 in assay [7] came out at 102 nM.

B4: v21815, bivalent and bispecific antibody construct [MSLN (1 Fab) x CD3 (1 scFv)] (bispecific antibody, human IgG1, kappa, L234A L235A)
heavy 1: not shown
heavy 2: QVQLVQSGAEVKKPGASVKVSCKASGYSFTGYTMNWVRQAPGQGLEWMGLITPYNGASSYNQKFRGKATMTVDTSTSTVYMELSSLRSEDTAVYYCARGGYDGRGFDYWGQGTLVTVSSASTKGPSVFPLAPSSKSTSGGTAALGCLVKDYFPEPVTVSWNSGALTSGVHTFPAVLQSSGLYSLSSVVTVPSSSLGTQTYICNVNHKPSNTKVDKKVEPKSCDKTHTCPPCPAPEAAGGPSVFLFPPKPKDTLMISRTPEVTCVVVSVSHEDPEVKFNWYVDGVEVHNAKTKPREEQYNSTYRVVSVLTVLHQDWLNGKEYKCKVSNKALPAPIEKTISKAKGQPREPQVYVLPPSRDELTKNQVSLLCLVKGFYPSDIAVEWESNGQPENNYLTWPPVLDSDGSFFLYSKLTVDKSRWQQGNVFSCSVMHEALHNHYTQKSLSLSPG
light: DIQMTQSPSSLSASVGDRVTITCSASSSVSYMHWYQQKSGKAPKLLIYDTSKLASGVPSRFSGSGSGTDFTLTISSLQPEDFATYYCQQWSGYPLTFGQGTKLEIKRTVAAPSVFIFPPSDEQLKSGTASVVCLLNNFYPREAKVQWKVDNALQSGNSQESVTEQDSKDSTYSLSSTLTLSKADYEKHKVYACEVTHQGLSSPVTKSFNRGEC
notes: also called 1x1 construct; 1+1 anti-CD3 scFv x anti-MSLN Fab construct
Take B4: the EC50 was 0.2 nM in [1], 2.4 nM in assay [6], 6.7 nM in assay [12] and 1.7 nM in [5]. Also, the “EC50 (read off the curve)” value was approximately 2 nM in assay [8]; approximately 2 nM in assay [9]; approximately 7 nM in assay [11]; approximately 2 nM in assay [13]; approximately 2 nM in assay [15]. In addition, the “maximum killing of BxPC3 cells” value in assay [10] was determined as 35%. Also, the Kd in [14] is approximately 1.73 nM.

B5: v18490, anti-MSLN antibody (mAb, MSLN (SS) Fab x 2) (antibody, human IgG1, kappa, L234A L235A)
heavy 1: QVQLVQSGAEVKKPGASVKVSCKASGYSFTGYTMNWVRQAPGQGLEWMGLITPYNGASSYNQKFRGKATMTVDTSTSTVYMELSSLRSEDTAVYYCARGGYDGRGFDYWGQGTLVTVSSASTKGPSVFPLAPSSKSTSGGTAALGCLVKDYFPEPVTVSWNSGALTSGVHTFPAVLQSSGLYSLSSVVTVPSSSLGTQTYICNVNHKPSNTKVDKKVEPKSCDKTHTCPPCPAPEAAGGPSVFLFPPKPKDTLMISRTPEVTCVVVSVSHEDPEVKFNWYVDGVEVHNAKTKPREEQYNSTYRVVSVLTVLHQDWLNGKEYKCKVSNKALPAPIEKTISKAKGQPREPQVYVLPPSRDELTKNQVSLLCLVKGFYPSDIAVEWESNGQPENNYLTWPPVLDSDGSFFLYSKLTVDKSRWQQGNVFSCSVMHEALHNHYTQKSLSLSPG
heavy 2: not shown
light: DIQMTQSPSSLSASVGDRVTITCSASSSVSYMHWYQQKSGKAPKLLIYDTSKLASGVPSRFSGSGSGTDFTLTISSLQPEDFATYYCQQWSGYPLTFGQGTKLEIKRTVAAPSVFIFPPSDEQLKSGTASVVCLLNNFYPREAKVQWKVDNALQSGNSQESVTEQDSKDSTYSLSSTLTLSKADYEKHKVYACEVTHQGLSSPVTKSFNRGEC
As for B5, in [5], the concentration giving a half-maximal response (EC50) was determined as 1.6 nM.
